In patent publication CN111423515A (BETA PHARMA INC, dated 2020):

T1: human CD20 on cells (CHO-K1/CD20) (human, UniProt P11836 1-297)
T1 construct: whole, on cells; also called CHO-K1/hCD20; CHO-K1/human CD20
T1 sequence (looked up): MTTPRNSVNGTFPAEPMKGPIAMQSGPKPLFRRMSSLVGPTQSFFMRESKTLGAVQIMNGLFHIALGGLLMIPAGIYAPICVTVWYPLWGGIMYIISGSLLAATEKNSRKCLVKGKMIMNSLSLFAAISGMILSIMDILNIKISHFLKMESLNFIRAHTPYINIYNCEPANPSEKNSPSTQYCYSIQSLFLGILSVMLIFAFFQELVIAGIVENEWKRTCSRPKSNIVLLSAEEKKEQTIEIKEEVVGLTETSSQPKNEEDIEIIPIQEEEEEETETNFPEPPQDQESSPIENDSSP


Columns and labels:
hCD47-his = molecular target: T2, hCD47-his (human, UniProt Q08722 19-139); experiment: ELISA, hCD47-his coated
T2 construct: Bought protein coated on the ELISA plate; also called Cat#CD7-H5227; not shown: his tag

[1] = molecular target: T1, human CD20 on cells (CHO-K1/CD20); experiment: flow cytometry on CHO-K1/CD20 cells
[2] = molecular target: T3, human CD47 on cells (CHO-K1/hCD47; human red blood cells RBC) (human, UniProt Q08722 19-323); experiment: flow cytometry, RBC mixed 20:1 with Raji, 10 μg/mL
T3 construct: whole, on cells; also called CHO-K1/human CD47; 红细胞
T3 sequence (Q08722 19-323): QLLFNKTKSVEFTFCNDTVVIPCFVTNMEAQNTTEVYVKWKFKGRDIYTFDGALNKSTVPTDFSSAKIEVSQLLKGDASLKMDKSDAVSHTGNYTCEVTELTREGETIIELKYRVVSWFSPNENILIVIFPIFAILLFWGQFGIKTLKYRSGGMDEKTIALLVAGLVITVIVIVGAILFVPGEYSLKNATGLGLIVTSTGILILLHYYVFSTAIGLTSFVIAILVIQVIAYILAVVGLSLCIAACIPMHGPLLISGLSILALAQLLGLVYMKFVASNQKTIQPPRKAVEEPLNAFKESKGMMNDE

T2 sequence (Q08722 19-139 limits assumed): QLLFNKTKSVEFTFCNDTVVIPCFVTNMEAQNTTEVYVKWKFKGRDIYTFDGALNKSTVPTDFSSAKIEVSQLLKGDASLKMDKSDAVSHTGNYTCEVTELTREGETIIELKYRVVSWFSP

Binder	binding result (hCD47-his)	binding result [1]	binding result [2]
重组蛋白CD002 (Fc fusion, Control recombinant protein; the format is not described; not shown: not described) EEELQVIQPDKSVSVAAGESAILHCTVTSLFPVGPIQWFRGAGPARELIYNQRQGPFPRVTTVSETTKRENMDFSISISAITPADAGTYYCVKFRKGSPDTEFKSGAGTELSVRAKPS	binds		
9020-6RP (bispecific antibody, Bispecific light chain co-transfected with the CD20 antibody heavy chain; not shown: IgG1 constant region) heavy: QVQLQQPGAELVKPGASVKMSCKASGYTFTSYNMHWVKQTPGRGLEWIGAIYPGNGDTSYNQKFKGKATLTADKSSSTAYMQLSSLTSEDSAVYYCARSTYYGGDWYFNVWGAGTTVTVSA light: not shown		binds	
9020-1RP-1C1 (bispecific antibody, not shown: light chain constant region of the CD20 antibody) heavy: not shown light: QIVLSQSPAILSASPGEKVTMTCRASSSVSYIHWFQQKPGSSPKPWIYATSNLASGVPVRFSGSGSGTSYSLTISRVEAEDAATYYCQQWTSNPPTFGGGTKLEIK		binds	binds
9020-1RP-1C2 (bispecific antibody, linker changed; not shown: light chain constant region of the CD20 antibody) heavy: not shown light: QIVLSQSPAILSASPGEKVTMTCRASSSVSYIHWFQQKPGSSPKPWIYATSNLASGVPVRFSGSGSGTSYSLTISRVEAEDAATYYCQQWTSNPPTFGGGTKLEIK		binds	binds
